How the values were obtained:
Experiment in all cases: ITC
[1] = target: Heimdall_LC_3 TF-Vps4-MIT (Microtubule Interacting and Transport domain of Vps4 of Heimdallarchaeota_LC_3) (Heimdallarchaeota_LC_3)
[2] = target: Loki_GC14_75 TF-Vps4-MIT (Microtubule Interacting and Transport domain of Vps4 of Lokiarchaeum_GC14_75) (Lokiarchaeum_GC14_75)
[3] = target: Odin_LCB_4 TF-Vps4-MIT (Microtubule Interacting and Transport domain of Vps4 of Odinarchaeota_LCB_4) (Odinarchaeota_LCB_4)

Substance | dH1 (Sequential Binding Sites, first site) [1] | dH2 (Sequential Binding Sites, second site) [1] | dH [3] | further results
Heimdall_LC_3 TF-Vps2/24/46 (natural protein) | -473 kcal/mol | 931 kcal/mol | – | –
Loki_GC14_75 TF-Vps2/24/46 (natural protein) | – | – | – | dH1 (Sequential Binding Sites, first site) [2]: -121 kcal/mol; dH2 (Sequential Binding Sites, second site) [2]: 422 kcal/mol
Loki_GC14_75 TF-Vps20/32/60 (natural protein) | – | – | – | dH [2]: 1420 kcal/mol
Odin_LCB_4 Vps2/24/46 (natural protein) | – | – | 392 kcal/mol | –

Second part, led by results:

dH1 (Sequential Binding Sites, first site) [1] | dH2 (Sequential Binding Sites, second site) [1] | dH [3] | Substance | further results
2780 kcal/mol | -2310 kcal/mol | – | Heimdall_LC_3 TF-Vps20/32/60 (natural protein) | –
– | – | 331 kcal/mol | Odin_LCB_4 TF-Vps20/32/60 (natural protein) | –

Source: publication doi:10.1101/2020.05.05.080093
